Laboratory results as given in publication PMC9129080, “Control of fruit softening and Ascorbic acid accumulation by manipulation of SlIMP3 in tomato” (Plant Biotechnology Journal, 2022).

How the values were obtained:
[1] = substrate: O=P(O)(O)OC1O[C@@H](CO)[C@@H](O)[C@@H](O)[C@@H]1O; test: phosphate release, malachite green; format: biochemical, Solanum lycopersicum; settings: 3.5 mM MgCl2, 50 mM Tris-Cl pH 7.0, 25 °C
[2] = substrate: O=P(O)(O)O[C@@H]1[C@@H](O)[C@H](O)[C@@H](O)[C@H](O)[C@@H]1O; test: phosphate release, malachite green; format: biochemical, Solanum lycopersicum; settings: 3.5 mM MgCl2, 50 mM Tris-Cl pH 7.0, 25 °C

B1: SlIMP3 (Solanum lycopersicum) (protein)
chain: MAQNGSVEQFLDVAVEAAKKAGEIIREGFYKTKHVEHKGMVDLVTETDKACEDFIFNHLKQRFPSHKFIGEETTAACGNFELTDEPTWIVDPLDGTTNFVHGFPFVCVSIGLTIEKKPTVGVVYNPIIDELFTGIDGKGAFLNGKPIKVSSQSELVKALLATEAGTNRDKLVVDATTGRINSLLFKVRSLRMCGSCALNLCGVACGRLDLFYELEFGGPWDVAGGAVIVKEAGGFVFDPSGSEFDLTARRVAATNAHLKDAFIKALNE
notes: tag removal not mentioned
[1]
  Km: 290 µM
[2]
  Km: 280 µM
